Results: article PMC3512392 (The EMBO Journal, 2012)

Target: the molecule itself
Assay: crystal structure

B1: SNX1 (301–522) (domain or fragment)
chain: KMNESDIWFEEKLQEVECEEQRLRKLHAVVETLVNHRKELALNTAQFAKSLAMLGSSEDNTALSRALSQLAEVEEKIEQLHQEQANNDFFLLAELLSDYIRLLAIVRAAFDQRMKTWQRWQDAQATLQKKREAEARLLWANKPDKLQQAKDEILEWESRVTQYERDFERISTVVRKEVIRFEKEKSKDFKNHVIKYLETLLYSQQQLAKYWEAFLPEAKAIS
binding result: binds
